Reference: patent US20230287454

What was measured:
Assay in all cases: cell_activity
[1] = molecular target: CD38 TALEN Left (synthetic construct) (UniProt Q56830); settings: CD38-negative T cells, paired with CD38 right, simultaneous electroporation
[2] = molecular target: CD38 TALEN Right (synthetic construct) (UniProt Q56830); settings: CD38-negative T cells, paired with CD38 left, simultaneous electroporation
[3] = system: CD52 TALEN Left (synthetic construct); settings: CD52-negative T cells, paired with CD52 right, simultaneous electroporation
[4] = molecular target: CD52 TALEN Right (synthetic construct) (UniProt Q56830); settings: CD52-negative T cells, paired with CD52 left, simultaneous electroporation
[5] = molecular target: TRAC TALEN Left (synthetic construct) (UniProt Q56830); settings: TCR-negative T cells, paired with TRAC right, simultaneous electroporation with CD38 and CD52 TALEN
[6] = molecular target: TRAC TALEN Right (synthetic construct) (UniProt Q56830); settings: TCR-negative T cells, paired with TRAC left, simultaneous electroporation

CD38 left half-site
activity [1]: 66.1%

CD38 right half-site
activity [2]: 66.1%

CD52 left half-site
activity [3]: 57%

CD52 right half-site
activity [4]: 57%

TRAC left half-site
activity [5]: 67.8%

TRAC right half-site
activity [6]: 67.8%
